Data published in patent publication US20230312724A1 (KADMON, published 2023).
Read-outs that look alike come from different tables or passages of the source.

T1: human B7-H4-his (human, UniProt Q7Z7D3 25-259)
T1 construct: also called hB7-H4-his; hB7-H4 his; not shown: his tag
T1 sequence: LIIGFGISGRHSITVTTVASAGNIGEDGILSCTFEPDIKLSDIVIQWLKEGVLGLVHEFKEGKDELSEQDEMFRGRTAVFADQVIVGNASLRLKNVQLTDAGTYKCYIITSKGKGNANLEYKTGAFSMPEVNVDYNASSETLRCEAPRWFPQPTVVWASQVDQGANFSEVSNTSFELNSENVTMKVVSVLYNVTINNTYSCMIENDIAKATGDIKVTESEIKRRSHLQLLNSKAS

T2: mouse B7-H4-his (mouse, UniProt Q7TSP5 25-257)
T2 construct: also called mB7-H4-his; mB7-H4-His; not shown: his tag
T2 sequence: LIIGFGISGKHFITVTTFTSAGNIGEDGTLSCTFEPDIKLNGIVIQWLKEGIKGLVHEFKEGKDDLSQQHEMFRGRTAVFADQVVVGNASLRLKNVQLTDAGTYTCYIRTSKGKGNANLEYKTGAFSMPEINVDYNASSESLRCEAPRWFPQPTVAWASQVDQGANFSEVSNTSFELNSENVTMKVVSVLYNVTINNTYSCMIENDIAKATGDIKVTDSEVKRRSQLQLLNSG

T3: mB7-H4 (soluble mouse B7-H4, construct not named) (mouse, UniProt Q7TSP5 25-257, limits assumed)
T3 sequence: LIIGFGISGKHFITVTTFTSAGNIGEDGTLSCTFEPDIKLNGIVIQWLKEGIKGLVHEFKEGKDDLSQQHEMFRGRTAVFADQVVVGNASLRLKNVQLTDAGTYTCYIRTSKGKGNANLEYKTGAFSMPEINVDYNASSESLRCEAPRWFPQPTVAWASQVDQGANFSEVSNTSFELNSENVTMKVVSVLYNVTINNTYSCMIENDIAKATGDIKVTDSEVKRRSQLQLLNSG

T4: mouse B7-H4 expressed on cells (mouse, UniProt Q7TSP5 25-257)
T4 construct: also called cellular mB7-H4; mB7-H4/CT26
T4 sequence: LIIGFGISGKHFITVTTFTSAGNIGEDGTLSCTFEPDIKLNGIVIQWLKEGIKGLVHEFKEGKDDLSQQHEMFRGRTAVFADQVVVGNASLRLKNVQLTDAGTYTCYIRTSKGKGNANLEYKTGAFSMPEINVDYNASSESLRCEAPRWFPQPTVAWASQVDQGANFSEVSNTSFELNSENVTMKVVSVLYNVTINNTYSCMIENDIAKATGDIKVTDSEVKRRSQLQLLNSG

T5: hB7-H4 (soluble human B7-H4, construct not named) (human, UniProt Q7Z7D3 25-259, limits assumed)
T5 construct: also called soluble hB7-H4
T5 sequence: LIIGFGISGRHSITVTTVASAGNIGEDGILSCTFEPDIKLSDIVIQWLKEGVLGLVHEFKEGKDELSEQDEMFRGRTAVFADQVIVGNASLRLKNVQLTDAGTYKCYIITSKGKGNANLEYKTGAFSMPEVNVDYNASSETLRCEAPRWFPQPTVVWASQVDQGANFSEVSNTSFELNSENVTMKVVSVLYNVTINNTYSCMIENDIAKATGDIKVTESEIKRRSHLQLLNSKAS

T6: human B7-H4 expressed on cells (human, UniProt Q7Z7D3 25-282)
T6 construct: Transfected CHO cells or tumor cell lines that carry hB7-H4; also called cellular hB7-H4
T6 sequence: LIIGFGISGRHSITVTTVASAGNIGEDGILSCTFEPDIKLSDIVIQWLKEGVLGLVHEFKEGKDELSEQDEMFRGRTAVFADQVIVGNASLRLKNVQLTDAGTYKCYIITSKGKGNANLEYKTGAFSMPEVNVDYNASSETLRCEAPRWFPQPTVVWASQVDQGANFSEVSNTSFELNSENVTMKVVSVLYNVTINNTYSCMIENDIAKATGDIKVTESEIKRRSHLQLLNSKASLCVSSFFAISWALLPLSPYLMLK


Experiments:
human B7-H4-Fc = target: T7, human B7-H4-Fc (human); test: SPR (Biacore)
T7 construct: also called hB7-H4-Fc; hB7-H4 Fc
Experimental: (§1) Surface plasmon resonance experiments were performed using a Biacore T200 instrument equipped with CM5 sensor chips. The system was equilibrated in running buffer HBS-EP pH 7.4. The ligands were immobilized using amine-coupling chemistry. The surfaces of flow cells one through four were activated for 5 min using an amine coupling kit at a flow rate of […]. The ligands (human B7-H4-Fc, human B7-H4-hism and mouse B7-H4-Fc; at a concentration of 5 μg/ml in 10 mM sodium acetate, pH 5.0) were immobilized at a density of 50-100 RU on flow cell 2, 3, 4 respectively. Flow cell 1 was left blank to serve as a reference surface. All flow cell surfaces were blocked with a 5 min injection of 1 M ethanolamine, pH 8.0. To collect kinetic binding data, the respective analyte (diluted in 1×HBS-EP buffer, pH 7.4) was injected over the four flow cells at concentrations of 100 nM to 0.1 nM at a flow rate of […] and at a temperature of 25° C. The protein complex was allowed to associate and dissociate for 180 seconds and 1000 or 1200 seconds, respectively. The surfaces were regenerated with a 30 second injection of 1.5 M NaCl/0.05 M NaOH. The data were fit to a simple 1:1 interaction model using the Langmuir fit option available within the Biaevaluaton software
(§2) The kinetics for binding of the different antibodies to their targets were examined using Biacore analysis.

human B7-H4-his = target: T1, human B7-H4-his; test: SPR (Biacore)
Experimental: as §1, §2

mouse B7-H4-his = target: T2, mouse B7-H4-his; test: SPR (Biacore)
Experimental: as §1, §2

mouse B7-H4-Fc [1] = target: T8, mouse B7-H4-Fc (mouse; human); test: ELISA, coated mB7-H4-Fc
T8 construct: also called mB7-H4-Fc; mB7-H4-hFc
Experimental: (§3) ELISA experiments were performed to determine binding to hB7-H4-Fc (FIG. 3A), hB7-H4-his (FIG. 3B), mB7-H4-Fc (FIG. 3C), and hB7-H4 IgV domain (FIG. 3D). Flow cytometry experiments were performed to determine binding to CHO cells expressing hB7-H4 (FIG. 3E) or mB7-H4 (FIG. 3F).
(§4) About 1-2 μg/ml of human or mouse B7-H4-Fc (or his-tagged) was immobilized on ELISA plates (Immuno 2HB, Thermo scientific, cat #3455) at 4° C. overnight. After blocking the plates with 3% PBS+milk, serial diluted antibodies were added to the blocked plates and incubated at RT for 1-1.5 h. After washing the plates with PBS-T (0.05%), horse radish peroxidase (HRP)-conjugated antibody targeting the hFab was added to the plate. Signals were developed by adding 3,3′,5,5′-Tetramethylbenzidine (TMB (followed 1N of H₂SO₄ to stop the reaction. The OD at 450 nm was read by ELISA plate reader (Infinite M1000 from TECAN). GraphPad from Prism was used to plot OD450 vs. antibody concentration curve and to calculate the EC50 values.

[2] = target: T3, mB7-H4 (soluble mouse B7-H4, construct …); test: summary of ELISA and flow cytometry
[3] = target: T4, mouse B7-H4 expressed on cells; test: flow cytometry, CHO cells expressing mB7-H4
Experimental: as §3
(§5) Cells were harvested, washed once, and then re-suspended to the concentration of 1×10⁶ cells/ml in ice cold FACS Buffer. 25 μl of cell suspension was added to each well of a 96-well round-bottom microliter plate. Serially diluted antibodies or fusion proteins were added to each well and incubated for 1 hour at 4° C. Cells were washed three times by centrifugation at 1500 rpm for 5 minutes, and then stained with secondary antibody (1:200 dilution) for 30 min at 4° C. in the dark. Cells were washed once, re-suspended in 100 μl PBS buffer and then analyzed using Guava Flow Cytometry EasyCyte system.

[4] = target: T5, hB7-H4 (soluble human B7-H4, construct …); test: ELISA, hB7-H4
Experimental: as §4

[5] = target: T5, hB7-H4 (soluble human B7-H4, construct …); test: SPR (Biacore)
Experimental: as §1

[6] = target: T3, mB7-H4 (soluble mouse B7-H4, construct …); test: SPR (Biacore)
Experimental: as §1

[7] = target: T3, mB7-H4 (soluble mouse B7-H4, construct …); test: ELISA, mB7-H4
Experimental: as §4

[8] = target: T6, human B7-H4 expressed on cells; test: flow cytometry, SK-BR-3 cells
Experimental: as §5

mouse B7-H4-Fc [9] = target: T8, mouse B7-H4-Fc; test: ELISA, coated mB7-H4-Fc; remark: listed apart in the source
Experimental: as §4

[10] = target: T4, mouse B7-H4 expressed on cells; test: flow cytometry, mB7-H4/CT26 cells
Experimental: as §5

[11] = target: T9, IgC domain of human B7-H4-Fc (human); test: ELISA, coated hB7-H4 IgC domain
T9 construct: also called hB7-H4 IgC domain

[12] = target: T10, IgC domain of mouse B7-H4-Fc (mouse; human); test: ELISA, coated mB7-H4 IgC domain
T10 construct: also called mB7-H4 IgC domain
T10 sequence (chain, as listed by the source): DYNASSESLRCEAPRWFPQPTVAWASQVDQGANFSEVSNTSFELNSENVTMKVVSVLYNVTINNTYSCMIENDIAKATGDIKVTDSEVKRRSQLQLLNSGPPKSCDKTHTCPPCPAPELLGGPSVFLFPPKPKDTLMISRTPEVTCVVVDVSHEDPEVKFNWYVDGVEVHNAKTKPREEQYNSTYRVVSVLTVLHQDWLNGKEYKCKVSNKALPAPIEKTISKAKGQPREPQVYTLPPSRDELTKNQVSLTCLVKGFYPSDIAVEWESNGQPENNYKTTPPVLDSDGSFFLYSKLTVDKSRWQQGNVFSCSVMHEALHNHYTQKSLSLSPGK

T8 sequence (chain, as listed by the source): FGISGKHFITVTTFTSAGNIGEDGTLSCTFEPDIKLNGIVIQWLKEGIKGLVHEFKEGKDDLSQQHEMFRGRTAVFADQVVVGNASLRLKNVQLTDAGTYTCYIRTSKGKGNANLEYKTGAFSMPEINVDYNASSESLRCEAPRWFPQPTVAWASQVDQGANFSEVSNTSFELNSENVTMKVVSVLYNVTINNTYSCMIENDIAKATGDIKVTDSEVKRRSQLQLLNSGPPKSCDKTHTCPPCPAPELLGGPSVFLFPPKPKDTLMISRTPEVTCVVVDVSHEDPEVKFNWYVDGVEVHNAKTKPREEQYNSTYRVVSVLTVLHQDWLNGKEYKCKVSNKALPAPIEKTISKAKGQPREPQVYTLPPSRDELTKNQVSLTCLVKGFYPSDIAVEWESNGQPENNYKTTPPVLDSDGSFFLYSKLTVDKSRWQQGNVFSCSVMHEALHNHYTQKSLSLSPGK
T9 sequence (chain, as listed by the source): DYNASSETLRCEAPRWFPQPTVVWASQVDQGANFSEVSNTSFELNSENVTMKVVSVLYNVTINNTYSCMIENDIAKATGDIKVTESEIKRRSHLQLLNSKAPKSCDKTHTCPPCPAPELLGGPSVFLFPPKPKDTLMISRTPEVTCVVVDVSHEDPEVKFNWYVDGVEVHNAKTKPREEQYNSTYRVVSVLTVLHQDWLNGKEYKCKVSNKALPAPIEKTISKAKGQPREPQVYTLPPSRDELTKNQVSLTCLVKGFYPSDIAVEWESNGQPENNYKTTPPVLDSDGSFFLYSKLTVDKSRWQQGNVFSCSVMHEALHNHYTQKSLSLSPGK
T7 sequence (chain, as listed by the source): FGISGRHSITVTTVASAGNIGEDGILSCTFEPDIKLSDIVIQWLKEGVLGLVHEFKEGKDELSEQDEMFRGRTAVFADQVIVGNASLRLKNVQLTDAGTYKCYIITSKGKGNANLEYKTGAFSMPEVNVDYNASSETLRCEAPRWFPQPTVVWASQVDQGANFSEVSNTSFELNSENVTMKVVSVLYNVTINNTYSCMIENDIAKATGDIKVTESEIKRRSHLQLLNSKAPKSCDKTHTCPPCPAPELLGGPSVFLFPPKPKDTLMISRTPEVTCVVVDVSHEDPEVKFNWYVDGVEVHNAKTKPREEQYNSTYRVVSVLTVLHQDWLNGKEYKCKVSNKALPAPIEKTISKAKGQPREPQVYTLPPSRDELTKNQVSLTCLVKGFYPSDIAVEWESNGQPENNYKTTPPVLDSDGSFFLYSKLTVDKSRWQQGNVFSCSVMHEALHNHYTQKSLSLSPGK

Kd (human B7-H4-Fc)	Kd (human B7-H4-his)	binding result (mouse B7-H4-his)	binding result [2]	EC50 [4]	Kd [5]	Kd [6]	EC50 [7]	EC50 [8]	binding result (mouse B7-H4-Fc [9])	EC50 [10]	binding result [11]	binding result [12]	Binder	binding result (mouse B7-H4-Fc [1])	binding result [3]
3.57 nM	2.47 nM	no binding	no binding	–	–	–	–	–	–	–	–	–	1A12/1A12 (antibody, human IgG1, V domains shown) VH: EVQLLESGGGLVKPGGSLRLSCAASGFTFSSYAMHWVRQAPGKGLEWVAVISYDGSNKYYADSVKGRFTISRDDSKNTLYLQMNSLKTEDTAVYYCARHGWDAFDIWGQGTLVTVSS VL: DIQMTQSPSSLSASVGDRVTITCRASQDISNRLNWYQQKPGKAPKLLIYLASSLQGGVPSRFSGSGSGTDFTLTISSLQPEDFATYYCQQAISFPLTFGGGTKVEIK	no binding (tested: axis value -8 (log scale labelled nM))	no binding (tested: axis value -7 (log scale labelled nM))
–	–	–	–	0.081 nM	1.21 nM	0.00138 nM	0.13 nM	2.53 nM	binds	1.85 nM	no binding (tested: log 1 nM (10 nM))	no binding (tested: log 1 nM (10 nM))	39A11/56A9 (antibody, human IgG1, V domains shown, 39A11 VH with 56A9 VL) VH: EVQLLESGGGLVQPGGSLRLSCAASGFTFSSYGMHWVRQAPGKGLEWVASISSSSGYIYYADSVKGRFTISRDNSKNTLYLQMNSLRAEDTAVYYCARASSGMDVWGQGTTVTVSS VL: DIQMTQSPSSLSASVGDRVTITCRASQSISSYLNWYQQKPGKAPKLLIYAASIRESGVPSRFSGSGSGTDFTLTISSLQPEDFATYYCQQYYTTPLTFGQGTKLEIK	–	–
–	–	–	–	0.061 nM	0.779 nM	0.000219 nM	0.107 nM	2.85 nM	binds	1.67 nM	no binding (tested: log 1 nM (10 nM))	no binding (tested: log 1 nM (10 nM))	39A11/56H7 (antibody, human IgG1, V domains shown, 39A11 VH with 56H7 VL) VH: EVQLLESGGGLVQPGGSLRLSCAASGFTFSSYGMHWVRQAPGKGLEWVASISSSSGYIYYADSVKGRFTISRDNSKNTLYLQMNSLRAEDTAVYYCARASSGMDVWGQGTTVTVSS VL: DIQMTQSPSSLSASVGDRVTITCRASQSISSYLNWYQQKPGKAPKLLIYAASNLQSGVPSRFSGSGSGTDFTLTISSLQPEDFATYYCQQYYTTPLTFGQGTKLEIK	–	–
